Laboratory results: PMC9305627

Columns and labels:
Assay in all cases: ELISA
UbV.ANKRD13D.4 T12A = UbV.ANKRD13D.4 T12A (UniProt P0CG47)
UbV.ANKRD13D.4 L70A = UbV.ANKRD13D.4 L70A (UniProt P0CG47)
UbV.ANKRD13D.4 S65A = UbV.ANKRD13D.4 S65A (UniProt P0CG47)
UbV.ANKRD13D.4 W72A = UbV.ANKRD13D.4 W72A (UniProt P0CG47)
UbV.ANKRD13D.4 Q49A = UbV.ANKRD13D.4 Q49A (UniProt P0CG47)

Measured: fold effect on affinity against UbV.ANKRD13D.4

RGQQEEEDLQRILQLSLTEH [UIM.ANKRD13D.4 peptide]
< 3 fold: all assays above
